# Measured values reported in patent publication US11497796B2, “Agents directed against a cis RGMa/neogenin interaction or lipid rafts and use of the same in methods of treatment” (UNIVERSITY HEALTH NETWORK, priority 2013, dated 2022).
# B1: 4Ig: four immunoglobulin-like domains of Neogenin, amino acids 1 to 383 of Accession No. AAC59662 (SEQ ID NO:1) (protein, listed as Gallus gallus)
# chain: RSGPRSPLTGSVVRTFTPFYFLVEPMDILSVRGASVIMNCSSYCETPPKIEWKKDGTLLNLVSDDRRQLLPDGSLLINSVVHSKHNKPDEGYYQCVATVESLGSIVSRTAKLTVAGLPRFTSQPELSSVYKGNSAILNCEVNVDLAPFVRWEQDRQPLSLDDRVFKLPSGALLIGNATDTDGGFYRCVIESGGTPKYSEEAELKILPDPEEPQSLVFVRQPSSLTKVTGQNAVFPCVAGGFPTPYVRWTKNGEELITEDSERFALRAGGSLLISDVTEEDVGTYTCIADNENETIEAQAELAVQVPPEFLKRPANIYAHESMDIVFECEVTGKPTPTVKWVKNGDVVIPSDYFKIVKEHNLQVLGLVKSDEGFYQCIAENDVGNAQAGAQLIILDLDVAIPTLPPTSLTSATNDHLAPATTGPLPTAPRDVVATLVSTRFIRLTWRTPVSDPQGDNLTYSIFYTKEGINRERVENTSRPGETQVMIQNLMPETVYVFRVVAQNKHGHGESSAPLKVATQPEVQLPGPAPNIRAYAGSPTSVTVTWETPLSGNGEIQNYKLYYMEKGQDSEQDVDVAGLSYTITGLKKYTEYSFRVVAYNKHGPGVSTQDVVVRTLSDVPSAAPQNLTLEARNSKSIMLHWQPPPAGTHSGQITGYKIRYRKVSRKSDVTESVGGTQLFQLIEGLERGTEYNFRIAAMTVNGTGPATDWVSAETFESDLDESRVPEVPSSLHVRPLVTSIVVSWTPPENQNIVVRGYAIGYGIGSPHAQTIKVDYKQRYYTIENLDPSSHYVITLKAFNNVGEGIPLYESAVTRPHSDTSEVDLFVINAPYTPVPDPSPMMPPVGVQASILSHDTIRITWADNSLPKNQKITDARYYTVRWKTNIPANTKYKTANATTLSYLVTGLKPNTLYEFSVMVTKGRRSSTWSMTAHGTTFELVPTSPPKDVTVVSKEGKPRTIIVNWQPPSEANGKITGYIIYYSTDVNAEIHDWVIEPVVGNRLTHQIQELTLDTPYYFKIQARNSKGMGPMSEAVQFRTPKAESSDKMPNDQASGSAGKGSRPVDVGPDYKPPLSGSNSPHGSPTSPLDSNMLLVIIVSVGVITIVIVVIVAVFCTRRTTSHQKKKRAACKSVNGSHKYKGNSKDVKPPDLWIHHERLELKPIDKSPDPNPIMTDTPIPRNSQDITPVDNSMDSNIHQRRNSYRGHESEDSMSTLAGRRGMRPKMMMPFDSQPPQPVISAHPIHSLDNPHHHFHSGSLASPTRSYLHHQVSPWPVGTSMSHSDRANSTESVRNTPSSDTMPASSSQPCADHQDPDSSSGAYLGSAQEEDAAQSLPTAHVRPSHPLKSFAVPAVPAAGSAYDPTLPSTPLLTQQAPSHPVHSVKTASIGTLGRTRPPMPVVVPSAPDVQETTRMLEDSESSYEPDELTKEMAHLEGLMKDLNAITTA
# modifications: Neogenin - Accession No. AAC59662
# Key:
# [1] = system: retinal axons (axonal pathfinding); assay: In ovo electroporation and DiI tracing of axonal paths; format: in vivo, chick; conditions: ectopic expression in the eye at E2
# Protocol: Eggs (White Leghorn) were incubated at 38° C. in a high humidity chamber. A small amount of viral solution (viral titers of 1×10^8 IU/ml) was mixed with 1/10 volume of 0.25% fast green solution (Molecular Probes) and injected in the tectum at E1.5. Eggs were further incubated until E15, when a small DiI crystal (Molecular Probes) was placed in the temporo-dorsal part of the right eye. At E17, embryos were sacrificed and the tecta fixed in 4% PFA. DiI tracing was viewed under the microscope (Olympus BX61) after cutting the tecta in half. Digital Images of the tecta were taken and processed using Photoshop (Adobe). Alternatively, plasmid constructs were electroporated into the optic vesicle to restrict expression to the eye and tracing performed as above.
# To study the effect of the interaction between 4Ig and N-Raft on axonal paths in vivo, 4Ig, N-Raft, and the control NRGMa^50-99 were ectopically expressed and axonal pathfinding was examined. To ensure that the treatments affected growing axons and not their environment, when electroporation was performed, the application of the electric field was narrowed to the optic vesicle at E2, thereby restricting expression to the eye and retinal axons (FIG. 3G).
# [2] = system: Neogenin-induced apoptosis in chick tecta; assay: TUNEL assay after Neogenin electroporation; format: in vivo; conditions: injected into tecta after Neogenin electroporation; for number of TUNEL+ cells: without agent 432±23
# Protocol: (A) HEK293 cells that stably express RGMa (FIG. 11) were transfected with empty plasmid (Ctrl) or Neogenin (Neo). Neogenin induced cell death (arrows) when compared to control. (B) Quantification of cell death in Neogenin-transfected cells that were incubated in BSA (Neo+Ctrl), 4Ig (1 μg/ml), N-Raft (1 μg/ml), Noggin (100 nM), or MβCD (10 mM). […] Data were average±SEM (n=3 independent experiments), *p<0.0001. (C) Representative images and (D) Quantification of cell death in chick E5 tecta electroporated with GFP- and a Neogenin-expression plasmid and then injected with N-RGMa50-99 (Ctrl; 1 μg/ml), 4Ig (1 μg/ml), or N-Raft (1 μg/ml) and subjected to TUNEL assay. […] Data were an average±SEM from 3 different tecta/conditions (*p<0.001). Bar, 100 μm. (E) Representative images and (F) Quantification of retinal whole mounts incubated for 4 days with control peptide (1 μg/ml), 4Ig (1 μg/ml), N-Raft (1 μg/ml), or MβCD (10 mM) and dead cells were stained with Propidium Iodide (PI). Images from 9 whole mounts per condition from 3 independent experiments were taken at the same intensities and the fluorescence measured using ImageJ. […] Bar, 500 μm. (G) Fluorescence micrographs of flat-mounted retinas depicting Fluorogold-labeled retinal ganglion cells (RGCs) in injured retinas at 14 days following axotomy. Control retinas (Ctrl) had few surviving RGCs. 4Ig, N-raft or MβCD increased cell survival. Bar, 200 μm. (H) Representations of the retinal areas selected in our analyses. […] Data were average±SEM (n=6 eyes), *p<0.01.
# RGMa was expressed in the developing chick neural tube, and thus, to determine if Neogenin required lipid rafts for its pro-death function in vivo, apoptosis was examined in the neural tubes of chick embryos (E2). Specifically, a GFP-construct was electroporated with plasmids that expressed either Mock or Neogenin and apoptosis was assayed by TUNEL staining.
# injured spinal cord = assay: Spinal cord injury, immunostaining and quantitative analysis (NeuN, GFAP, lesion volume); format: in vivo, rat; conditions: for lesion volume compared to controls: rat, in vivo; for increase in number of peri-lesional neurons (NeuN) compared to controls: systemic application for 6 weeks
# spinal cord injured rats = assay: Spinal cord injury (clip compression), functional analysis (BBB, motor subscore, ladder-walk); format: in vivo, rat; conditions: for functional recovery (BBB score and motor subscore) compared to controls: 4Ig IV or MβCD IP
# Protocol: The spinal cord was injured by clip compression at spinal cord level T8 with a 20 g force. The 4Ig or vehicle was injected intraspinally immediately following SCI. 2 injections (250 ng/μL, 3 μL each) were made 1 mm rostral and 1 mm caudal to the lesion site and adjacent to the midline vein. Immediately following SCI, the 4Ig treated rats also received a 1 mg/kg dose of 4Ig intravenously (i.v.) via the intrajugular vein and subsequent i.v. injections weekly for 2 more weeks. Rats in the MβCD group received intraperitoneal (i.p.) injection of MβCD at 1000 mg/kg/week immediately following SCI and then daily i.p. injections until sacrifice. Control rats received equivalent vehicle volumes as described above.
# To assess local delivery of 4Ig, 19 adult female Wistar rats were injured and injected rostral and caudal to the lesion site with 4Ig or PBS. Immediately after the intraspinal injections, 4Ig or PBS was delivered intrathecally and then continuously for 14 days (0.5 μL/hour) via the catheter and pump system.
# Functional tests were performed before the injury, 1 day, and then weekly for 6 weeks post-SCI. Locomotor function was evaluated using the BBB locomotor rating scale. A score of 0 indicates no hindlimb movement, a score of 21 indicates unimpaired locomotion as observed in Control. Motor subscores were determined to assess toe clearance, predominant paw position and absence of instability. A maximal motor subscore of 7 means normal locomotion.
# Ladder-walk analysis was done to assess fine motor functions. At 1 week post-SCI and weekly thereafter, rats with a BBB score greater than 10 were placed on the horizontal ladder-walk apparatus and 3 test runs were recorded. Recordings were analyzed in slow motion; the number of footfalls per hindlimb was recorded and the average was calculated for each rat per week.
# Pre-operatively, 32 adult female Wistar rats (Charles River, St. Constant, QC, 200-300 g) were acclimatized and trained for baseline behavioral assessment. Rats were divided into 4 groups (n=8/group): 1) MBCD (i.p.); 2) vehicle control (i.p); 3) 4Ig (i.v. and intraspinal); 4) vehicle control (i.v. and intraspinal). Rats were anesthetized by inhalation of 2% isofluorane in combination with a mixture of nitrous oxide and oxygen (1:2, v/v). The spinal cord was exposed by laminectomy and a clip compression injury was made at spinal cord level T8 with a 20 g force. This was a clinically relevant model of SCI reflecting human pathology. n the 4Ig and equivalent control group, 4Ig or vehicle was injected intraspinally immediately following SCI. A total of 2 injections (250 ng/μL, 3 μL each) were made 1 mm rostral and 1 mm caudal to the lesion site and adjacent to the midline vein. Injections were made stereotactically with the aid of an operating microscope using a motorized microinjector at a rate of 1.5 μl/min with a 10 μl Hamilton syringe and a customized 32 G needle. The needle was left in place for an additional 2 min after injection to prevent leakage. The overlying muscle and skin were sutured with 3-0 vicryl sutures (Johnson and Johnson, Peterborough ON, Canada).
# Immediately following SCI, the 4Ig treated rats also received a 1 mg/kg dose of 4Ig i.v. via the intrajugular vein and subsequent i.v. injections weekly for 2 more weeks. Rats in the MβCD group received intraperitoneal injection of MβCD at 1000 mg/kg/week immediately following SCI and then daily i.p. injections until sacrifice. Control rats received equivalent volumes as described above. Bladders were evacuated manually 3 times daily until spontaneous voiding was established, and hematuria or urinary tract infection was treated with Clavomax (62.5 mg PO BID for 7 days). The rats were housed singly in a temperature-controlled room at 26° C. with a 12 hour light/dark cycle. Water and food were provided ad libitum. […]
Molecule,electroporations that caused aberrant axonal paths [1] [%],reduction of the number of TUNEL+ cells [2],number of TUNEL+ cells [2],lesion volume compared to controls (injured spinal cord),increase in number of peri-lesional neurons (NeuN) compared to controls (injured spinal cord),functional recovery (BBB score and motor subscore) compared to controls (spinal cord injured rats; as early as 2-3 weeks post-SCI),"improvement of locomotor recovery vs. control (spinal cord injured rats; older animals (greater than 7 month), post-SCI)",increase of NeuN positive cells in cross-sections of the spinal cord (injured spinal cord; intrathecal application over 6 weeks),"hindlimb coordination (footfalls), local application (spinal cord injured rats; intrathecal)","functional recovery (BBB score), local application (spinal cord injured rats; intrathecal, Alzet mini-osmotic pumps, as early as 2-3 weeks post-SCI)","hindlimb coordination, ladder-walk test (footfalls) (spinal cord injured rats; systemic treatment)"
N-Raft: peptide spanning amino acids 28-73 of RGMa (SEQ ID NO:2) (SPCKILKCNSEFWAATSGSHHLGAEETPEFCTALRAYAHCTRRTAR; N-Raft - amino acids 28-73 of RGMa),85.7,about 4 fold,103±8,,,,,,,,
"methyl-β-cyclodextrin [MβCD, reference compound]",,,,did not significantly vary,about 2 fold,significant functional recovery,+6.8 BBB points,,,,
B1,100,about 18 fold,23±4,did not significantly vary,about 2 fold,significant functional recovery,,about 2 fold,fewer footfalls,significant functional recovery,fewer footfalls
